# Assay results as given in PMC5418593.
# Assays:
# [1] = target: T1, hEXOG wild type (hEXOG-dN58) (human, UniProt Q9Y2C4 59-368, del2-58); experiment: fluorescence anisotropy; 20 mM EDTA; apparent Kd (main text 6.2); EK140: 20 mM HEPES pH 7.5, 140 mM KCl, 1 mM TCEP, 5% glycerol; plus 20 mM EDTA for anisotropy and EMSA (gel at 4 C, 0.5x TBE with 20 mM EDTA); ITC in EK140 at 20 C; settings: protein: recombinant; tags: C-terminal His-tag; chain copies: 2; label: 3'-fluorescein; 10 bp duplex
# hEXOG-R314A [2] = target: T2, hEXOG-R314A (human, UniProt Q9Y2C4 59-368, R314A;del2-58); experiment: fluorescence anisotropy; 20 mM EDTA; apparent Kd; EK140: 20 mM HEPES pH 7.5, 140 mM KCl, 1 mM TCEP, 5% glycerol; plus 20 mM EDTA for anisotropy and EMSA (gel at 4 C, 0.5x TBE with 20 mM EDTA); ITC in EK140 at 20 C; settings: protein: recombinant; tags: C-terminal His-tag; chain copies: 2; label: 3'-fluorescein; 10 bp duplex
# [3] = target: T1, hEXOG wild type (hEXOG-dN58); experiment: as above; settings: protein: recombinant; tags: C-terminal His-tag; chain copies: 2; label: 3'-fluorescein; 10 bp duplex
# hEXOG-R314A [4] = target: T2, hEXOG-R314A; experiment: EMSA; 20 mM EDTA; apparent Kd; EK140: 20 mM HEPES pH 7.5, 140 mM KCl, 1 mM TCEP, 5% glycerol; plus 20 mM EDTA for anisotropy and EMSA (gel at 4 C, 0.5x TBE with 20 mM EDTA); ITC in EK140 at 20 C; settings: protein: recombinant; tags: C-terminal His-tag; chain copies: 2; label: 5'-32P; 10 bp duplex
# [5] = target: T1, hEXOG wild type (hEXOG-dN58); experiment: as above; settings: protein: recombinant; tags: C-terminal His-tag; chain copies: 2; label: 5'-32P; 10 bp duplex
# hEXOG-H140A = hEXOG-H140A (human, UniProt Q9Y2C4 59-368, H140A;del2-58); experiment: X-ray crystallography; 1.85 A; DNA in both active sites; EK140: 20 mM HEPES pH 7.5, 140 mM KCl, 1 mM TCEP, 5% glycerol; plus 20 mM EDTA for anisotropy and EMSA (gel at 4 C, 0.5x TBE with 20 mM EDTA); ITC in EK140 at 20 C; settings: protein: recombinant; tags: C-terminal His-tag; chain copies: 2; 10 bp duplex; two duplexes per dimer
binder,measurement,setting,value
"10 bp 5'P-dsDNA, 3'-fluorescein (dsDNA, 5'-phosphate on one strand) DNA 1: CTGACGTGCG DNA 2: CGCACGTCAG",Kd,[1],6.25 ± 2 nM
same,Kd,hEXOG-R314A [2],35.7 ± 7.2 nM
"10 bp 5'OH-dsDNA, 3'-fluorescein (dsDNA, 5'-OH) DNA 1: CTGACGTGCG DNA 2: CGCACGTCAG",Kd,[3],22.2 ± 5.1 nM
"10 bp dsDNA, 5'-32P (dsDNA, 5'-phosphate (32P)) DNA 1: CTGACGTGCG DNA 2: CGCACGTCAG",Kd,hEXOG-R314A [4],26.5 ± 6.6 nM
same,Kd,[5],3.4 ± 1.2 nM
"10 bp DNA for crystallization (dsDNA, 5'-phosphate on one strand only) DNA 1: CTGACGTGCG DNA 2: CGCACGTCAG",binding result,hEXOG-H140A,binds
